Experimental data as given in patent publication US8114968 (DYAX, dated 2012).

B1: 539B-M0065-E12 (Fab, V domains shown)
VH: EVQLLESGGGLVQPGGSLRLSCAASGFTFSWYNMHWVRQAPGKGLEWVSGISPSGGNTMYADSVKGRFTISRDNSKNTLYLQMNSLRAEDTAVYYCAKDIRGAYSSGLFDYWGRGTLVTVSS
VL: DIQMTQSPSSLSASVGDRVTITCRANQSIYTYLNWYQQKPGKAPELLIYAASSLQSGVPSRFSGSGSGTDFTLTISSLQPEDFATYYCQQAGIFGQGTKLEIK
B2: 539B-M0065-G03 (Fab, V domains shown)
VH: EVQLLESGGGLVQPGGSLRLSCAASGFTFSWYGMGWVRQAPGKGLEWVSVIVSSGGFTQYADSVKGRFTISRDNSKNTLYLQMNSLRAEDTAVYYCAKDIRGAYSSGLFDYWGRGTLVTVSS
VL: DIQMTQSPSSLSASVGDRVTITCRANQSIYTYLNWYQQKPGKAPELLIYAASSLQSGVPSRFSGSGSGTDFTLTISSLQPEDFATYYCQQAGIFGQGTKLEIK
B3: 539B-M0069-D10 (Fab, V domains shown)
VH: EVQLLESGGGLVQPGGSLRLSCAASGFTFSLYHMHWVRQAPGKGLEWVSGIGPSGGWTIYADSVKGRFTISRDNSKNTLYLQMNSLRAEDTAVYYCAKDIRGAYSSGLFDYWGRGTLVTVSS
VL: DIQMTQSPSSLSASVGDRVTITCRANQSIYTYLNWYQQKPGKAPELLIYAASSLQSGVPSRFSGSGSGTDFTLTISSLQPEDFATYYCQQAGIFGQGTKLEIK
B4: 539A-M0014-G11 Fab (Fab, V domains shown)
VH: EVQLLESGGGLVQPGGSLRLSCAASGFTFSWYVMVWVRQAPGKGLEWVSSIYSSGGPTKYADSVKGRFTISRDNSKNTLYLQMNSLRAEDTAVYYCAKEGGVYGGPELYYYYYGMDVWGQGTTVTVSS
VL: QYELTQPPSASGTPGQRITISCSGSSSNLGSNPVQWYQQLPGSAPKLLIHTNTHRPSGVPDRFSGSKSVTSASLAISGLQSEDEAEYYCATWDDSLNGGVFGGGTKLTVL
B5: 539A-M0014-G11 IgG (antibody, V domains shown)
VH: EVQLLESGGGLVQPGGSLRLSCAASGFTFSWYVMVWVRQAPGKGLEWVSSIYSSGGPTKYADSVKGRFTISRDNSKNTLYLQMNSLRAEDTAVYYCAKEGGVYGGPELYYYYYGMDVWGQGTTVTVSS
VL: QYELTQPPSASGTPGQRITISCSGSSSNLGSNPVQWYQQLPGSAPKLLIHTNTHRPSGVPDRFSGSKSVTSASLAISGLQSEDEAEYYCATWDDSLNGGVFGGGTKLTVL
B6: 539A-M0016-A11 Fab (Fab, V domains shown)
VH: EVQLLESGGGLVQPGGSLRLSCAASGFTFSEYQMAWVRQAPGKGLEWVSSIYPSGGHTHYADSVKGRFTISRDNSKNTLYLQMNSLRAEDTAVYYCAKESYYDFWSGYYFDYWGQGTLVTVSS
VL: DIQMTQSPSSLSASVRDRVTITCRTSQNINTYLNWYYQAPGRAPKLLIFGVSSLHRGVSSRFSGSGDGTEFTLTISSLQPEDIGTYFCQQSYSSPWTFGQGTKVEIK
B7: 539A-M0016-H05 Fab (Fab, V domains shown)
VH: EVQLLESGGGLVQPGGSLRLSCAASGFTFSWYAMSWVRQAPGKGLEWVSRIVPSGGDTGYADSVKGRFTISRDNSKNTLYLQMNSLRAEDTAVYYCATFRGIMYGDYGSSYWYFDLWGRGTLVTVSS
VL: DIQMTQSPATLSLSPGERATLSCRASQSVSSYLAWYQQKPGQAPRLLIYDASNRATGIPARFSGSGSGTDFTLTISSLEPEDFAVYYCQQRSNWPLTFGGGTKVEIK
B8: 539A-M0016-H05 IgG (antibody, V domains shown)
VH: EVQLLESGGGLVQPGGSLRLSCAASGFTFSWYAMSWVRQAPGKGLEWVSRIVPSGGDTGYADSVKGRFTISRDNSKNTLYLQMNSLRAEDTAVYYCATFRGIMYGDYGSSYWYFDLWGRGTLVTVSS
VL: DIQMTQSPATLSLSPGERATLSCRASQSVSSYLAWYQQKPGQAPRLLIYDASNRATGIPARFSGSGSGTDFTLTISSLEPEDFAVYYCQQRSNWPLTFGGGTKVEIK
B9: 539A-M0022-C07 Fab (Fab, V domains shown)
VH: EVQLLESGGGLVQPGGSLRLSCAASGFTFSIYQMWWVRQAPGKGLEWVSSISSSGFTWYADSVKGRFTISRDNSKNTLYLQMNSLRAEDTAVYYCTTEDIGYYYGMDVWGQGTTVTVSS
VL: DIQMTQSPATLSVSPGERATLSCRASQNVRNYLAWYQQKPGQAPRLLIYDASKRATGIPARFSGSGSGTDFTLTISGLEPEDFAVYYCQQRSNWPTFGPGTKVDIK
B10: 539A-M0022-C07 IgG (antibody, V domains shown)
VH: EVQLLESGGGLVQPGGSLRLSCAASGFTFSIYQMWWVRQAPGKGLEWVSSISSSGFTWYADSVKGRFTISRDNSKNTLYLQMNSLRAEDTAVYYCTTEDIGYYYGMDVWGQGTTVTVSS
VL: DIQMTQSPATLSVSPGERATLSCRASQNVRNYLAWYQQKPGQAPRLLIYDASKRATGIPARFSGSGSGTDFTLTISGLEPEDFAVYYCQQRSNWPTFGPGTKVDIK
B11: 539A-M0013-H06 Fab (Fab, V domains shown)
VH: EVQLLESGGGLVQPGGSLRLSCAASGFTFSAYEMDWVRQAPGKGLEWVSGISSSGGPTYYADSVKGRFTISRDNSKNTLYLQMNSLRAEDTAVYYCARVGGWELLQDYYYYMDVWGKGTTVTVSS
VL: DIQMTQSPATLSLSPGERATLSCRASHSVDNLAWYQQQPGQAPRLLIYDVSYRATGIPARFSGSGSGTDFTLTISSLEPEDFAVYYCQQRNNWPLSLTFGGGTKVEIK
B12: 539A-M0020-B01 Fab (Fab, V domains shown)
VH: EVQLLESGGGLVQPGGSLRLSCAASGFTFSHYVMHWVRQAPGKGLEWVSYIGSSGGETRYADSVKGRFTISRDNSKNTLYLQMNSLRAEDTAVYYCARADYGDYDYYYYYGMDVWGQGTTVTVSS
VL: QYELTQPPSVSVAPGQTATITCEGNNIASKSVHWYQQKPGQAPVLVVYDDRDRPSGISERISGSNSGNTPTLTIFRVEAGDEADYYCQVSDSATDHRVFGGGTKLTVL
B13: 539A-M0027-E11 IgG (antibody, V domains shown)
VH: EVQLLESGGGLVQPGGSLRLSCAASGFTFSHYEMEWVRQAPGKGLEWVSSISSSGGPTMYADSVKGRFTISRDNSKNTLYLQMNSLRAEDTAVYYCARGMYGDYDFYYYYGMDVWGQGTTVTVSS
VL: DIQMTQSPDTLSLSPGERGTLSCRASQSLSSSYLAWYQQKPGQAPRLLIYDASSRATGIPDRFSGSGSGTDFTLTIGRLEPEDSAVYYCQQYGSFPLTFGGGTKVEIK
B14: 539A-M0027-E11 Fab (Fab, V domains shown)
VH: EVQLLESGGGLVQPGGSLRLSCAASGFTFSHYEMEWVRQAPGKGLEWVSSISSSGGPTMYADSVKGRFTISRDNSKNTLYLQMNSLRAEDTAVYYCARGMYGDYDFYYYYGMDVWGQGTTVTVSS
VL: DIQMTQSPDTLSLSPGERGTLSCRASQSLSSSYLAWYQQKPGQAPRLLIYDASSRATGIPDRFSGSGSGTDFTLTIGRLEPEDSAVYYCQQYGSFPLTFGGGTKVEIK
B15: 539A-M0020-B01 IgG (antibody, V domains shown)
VH: EVQLLESGGGLVQPGGSLRLSCAASGFTFSHYVMHWVRQAPGKGLEWVSYIGSSGGETRYADSVKGRFTISRDNSKNTLYLQMNSLRAEDTAVYYCARADYGDYDYYYYYGMDVWGQGTTVTVSS
VL: QYELTQPPSVSVAPGQTATITCEGNNIASKSVHWYQQKPGQAPVLVVYDDRDRPSGISERISGSNSGNTPTLTIFRVEAGDEADYYCQVSDSATDHRVFGGGTKLTVL
B16: 539A-M0014-C09 IgG (antibody, V domains shown)
VH: EVQLLESGGGLVQPGGSLRLSCAASGFTFSDYSMHWVRQAPGKGLEWVSGIGPSGGPTFYADSVKGRFTISRDNSKNTLYLQMNSLRAEDTAVYYCARGEYSSSDYYYYYGMDVWGQGTTVTVSS
VL: DIQMTQSPATLSLSPGERATLSCGASQNIDGYYLAWYQQKPGQAPSLLIYDASSRSTGVPDRFSGSGSGTDFTLTISRLEPEDFAVYYCQHYGNSLWTFGQGTKVEIK
B17: 539A-M0014-C09 Fab (Fab, V domains shown)
VH: EVQLLESGGGLVQPGGSLRLSCAASGFTFSDYSMHWVRQAPGKGLEWVSGIGPSGGPTFYADSVKGRFTISRDNSKNTLYLQMNSLRAEDTAVYYCARGEYSSSDYYYYYGMDVWGQGTTVTVSS
VL: DIQMTQSPATLSLSPGERATLSCGASQNIDGYYLAWYQQKPGQAPSLLIYDASSRSTGVPDRFSGSGSGTDFTLTISRLEPEDFAVYYCQHYGNSLWTFGQGTKVEIK
B18: 539A-M0013-D11 Fab (Fab, V domains shown)
VH: EVQLLESGGGLVQPGGSLRLSCAASGFTFSSYPMWWVRQAPGKGLEWVSGIVPSGGVTIYADSVKGRFTISRDNSKNTLYLQMNSLRAEDTAVYYCARVGWLASSDYYYYMDVWGKGTTVTVSS
VL: DIQMTQSPSSLSASVGDRITISCQASQDIDNYLNWYQQRSGKAPKLLIYDAYNLKAGVPSRFRGSRSGTDFFLTISSLQPEDFATYYCQQSYRAPLTFGGGTKVEIK
B19: 539A-M0019-C05 Fab (Fab, V domains shown)
VH: EVQLLESGGGLVQPGGSLRLSCAASGFTFSWYAMVWVRQAPGKGLEWVSYIGSSGGVTGYADSVKGRFTISRDNSKNTLYLQMNSLRAEDTAVYYCARQKRVDYYDSSGYPTNAEFDYWGQGTLVTVSS
VL: QYELTQPRSVSGSPGQSVTISCTGSSSDVAGFYYVSWYQQHPGKAPKLMIRDVNDRPSGVSNRFSGSKSGNTASLTIAGLQTEDEAVYYCSSTSRSDTRVIFGGGTKLTV
B20: 539A-M0019-C05 IgG (antibody, V domains shown)
VH: EVQLLESGGGLVQPGGSLRLSCAASGFTFSWYAMVWVRQAPGKGLEWVSYIGSSGGVTGYADSVKGRFTISRDNSKNTLYLQMNSLRAEDTAVYYCARQKRVDYYDSSGYPTNAEFDYWGQGTLVTVSS
VL: QYELTQPRSVSGSPGQSVTISCTGSSSDVAGFYYVSWYQQHPGKAPKLMIRDVNDRPSGVSNRFSGSKSGNTASLTIAGLQTEDEAVYYCSSTSRSDTRVIFGGGTKLTV
B21: 539A-M0013-G12 Fab (Fab, V domains shown)
VH: EVQLLESGGGLVQPGGSLRLSCAASGFTFSWYHMFWVRQAPGKGLEWVSGISSSGGYTHYADSVKGRFTISRDNSKNTLYLQMNSLRAEDTAVYYCATREGMLYDYVWGENYMDVWGKGTTVTVSS
VL: DIQMTQSPSSLSASVGDRVTITCQASQDTYNRLHWYQQKPGKAPKLLIYDAVNLNRGVPSRFRGSGSGTNYILIITNLQPEDTATYYCQHSDDLSLAFGGGTKVEIK

These binders were tested against murine MMP-12 (mouse, UniProt P34960 110-473, limits assumed) (assay: cell-based or functional assay).
murine MMP-12, sequence (P34960 110-473 limits assumed): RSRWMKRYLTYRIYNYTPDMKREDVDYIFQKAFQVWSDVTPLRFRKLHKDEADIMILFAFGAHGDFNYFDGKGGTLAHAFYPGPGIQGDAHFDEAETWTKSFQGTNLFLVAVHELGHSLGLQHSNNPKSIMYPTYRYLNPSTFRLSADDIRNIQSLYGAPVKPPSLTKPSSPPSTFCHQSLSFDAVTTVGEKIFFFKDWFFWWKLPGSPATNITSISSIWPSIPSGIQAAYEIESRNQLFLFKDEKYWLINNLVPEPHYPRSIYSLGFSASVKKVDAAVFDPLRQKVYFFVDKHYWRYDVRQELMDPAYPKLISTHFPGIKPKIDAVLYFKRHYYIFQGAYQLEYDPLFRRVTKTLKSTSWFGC

B1 and B2 cannot be ordered by IC50 m: < 10 nM (not printed; inferred) for the first, < 10 nM (not printed; inferred) for the second.

B3 was tested, and the IC50 m was < 10 nM (not printed; inferred).

What follows are binders tested against T1, human MMP-12 (human, UniProt P39900 106-470, limits assumed) (assay: cell-based or functional assay).
T1 sequence (P39900 106-470 limits assumed): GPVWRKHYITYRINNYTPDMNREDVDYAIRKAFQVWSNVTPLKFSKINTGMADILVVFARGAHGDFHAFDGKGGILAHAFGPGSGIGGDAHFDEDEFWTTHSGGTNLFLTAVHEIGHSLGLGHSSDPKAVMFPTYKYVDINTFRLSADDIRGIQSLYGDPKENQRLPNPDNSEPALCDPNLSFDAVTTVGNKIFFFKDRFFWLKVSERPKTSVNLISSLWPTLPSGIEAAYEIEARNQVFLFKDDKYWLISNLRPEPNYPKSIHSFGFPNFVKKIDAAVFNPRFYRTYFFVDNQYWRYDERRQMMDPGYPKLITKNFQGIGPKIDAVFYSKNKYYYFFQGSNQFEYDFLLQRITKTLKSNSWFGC

First: B1
Second: B2
The “IC50hu” value of the first is 2.1-fold lower: 1.4 nM for the first, 3 nM for the second.

With B3 the “IC50hu” value was 2.3 nM.

Biological target: T1, human MMP-12
Experiment: cell-based or functional assay
Remark: another data set of the same source

First: B4
Second: B6
The “IC50 (nM), large scale purified Fabs” value of the first is 4-fold higher: 35 nM for the first, 8.8 nM for the second.

Compared with B7, B9 is 2.3-fold lower in “IC50 (nM), large scale purified Fabs” value: 56.6 nM for the first, 24.2 nM for the second.

Compared with B11, B12 is 6.3-fold higher in “IC50 (nM), large scale purified Fabs” value: 11.9 nM for the first, 74.8 nM for the second.

Going from B14 to B17, the “IC50 (nM), large scale purified Fabs” value rises from 23.9 nM to 36.9 nM (1.5-fold).

First: B18
Second: B19
The “IC50 (nM), large scale purified Fabs” value of the first is 4.6-fold lower: 20.3 nM for the first, 93 nM for the second.

For B21, the “IC50 (nM), large scale purified Fabs” value was 6.7 nM.

Going from B5 to B8, the “IC50 (nM), IgGs” value rises from 12.3 nM to 32.9 nM (2.7-fold).

First: B10
Second: B13
The “IC50 (nM), IgGs” value of the first is 1.8-fold lower: 13.2 nM for the first, 23.7 nM for the second.

B15 and B16 are within 1.5-fold of each other in “IC50 (nM), IgGs” value: 34.6 nM for the first, 43.3 nM for the second.

For B20, the “IC50 (nM), IgGs” value was 24.5 nM.
